Data as given in patent publication US20090325259A1, “USE OF ADHESION MOLECULES AS BOND STRESS-ENHANCED NANOSCALE BINDING SWITCHES” (priority 2002, published 2009).

What was measured:
[1] = tested on: guinea pig red blood cells (RBCs); experiment: Parallel plate flow chamber, RBCs on carpet of FimH-expressing E. coli; format: cell-based; details: low shear, 0.01 to 0.14 dynes/cm^2
Experimental: Bacteria-coated dishes were prepared as follows: 35 mm tissue culture dishes were incubated with 20 μg/ml RNAse B in 0.02 M bicarbonate buffer for 1 hr at 37° C. and washed three times in PBS with 0.1% BSA (PBS-BSA). The dishes were then incubated with 200 μl PBS-BSA containing 108 colony-forming units of E. coli for 1 hr at 37° C. and washed three times. […] The dishes were then placed under a Glycotech parallel plate flow chamber with a size B gasket (2.5 cm×0.25 cm×250 μm) and sealed with vacuum. A Harvard model #975 pulse-free syringe pump was used to pump fluid through the chamber. […]
RBC movement was recorded using phase contrast microscopy with a 20× objective, a CCD camera, and Metamorph video imaging software by Universal Imaging. Videos were recorded at 1 frame every 2 s for a total of 3 min at each shear rate. […] The average velocity for each cell was calculated from these positions over the 3 min at each shear. […] We only analyzed cells that were attached and in the field of view at the start of the 3 min time frame. The off-rate of RBCs was calculated from the X, the percent of original RBCs remaining bound at time t, using the formula k=1/t·ln(1/X), and using t=3 min. […]

[2] = tested on: guinea pig red blood cells (RBCs); experiment: RBC rosette-formation assay (static agglutination); format: cell-based; details: static rosette-formation assay
Experimental: (§1) Assays of bacterial adhesion to Man1-BSA and bovine RNAseB immobilized in 96-well plates were carried out as described previously (Sokurenko et al., 1995). Briefly, Man1-BSA and bovine RNAseB were dissolved at 20 μg/ml in 0.02 M bicarbonate buffer, and 100 μl aliquots were incubated in microtiter wells for 1 hr at 37° C. The wells were then washed three times with PBS and quenched with 0.1% BSA in PBS. 3H-thymidine-labeled bacteria were added in 0.1% BSA in PBS and incubated for 40 min at 37° C. without shaking to achieve saturation, and the wells were then washed with PBS. The individual wells were subjected to scintillation counting. The density of bacteria used in all assays was 5×10^7 colony forming units per 100 μl. RBC rosette-formation assay was performed by mixing equal amounts of serially diluted bacterial suspensions (starting from OD540 nm=1.0) and a 1% suspension of RBC in U-bottom microtiter plate wells. On-slide agglutination assays were performed by mixing the suspension of RBC and bacteria on a slide surface followed by rocking at ˜3 s^−1.
Two commonly used RBC agglutination assays were performed that utilize different shear conditions. […] If no agglutination occurs, RBCs fall into a pellet in the bottom of the well (FIG. 15A), while agglutination results in a rosette of RBCs crosslinked by bacteria. […]

[3] = tested on: bovine RNAse B (trimannose); experiment: Bacterial adhesion to bovine RNAse B-coated microplate (trimannose), static; format: binding; details: mutations in FimH-j96 and FimH-f18
Experimental: as §1

Molecule | Adhesion of RBCs to bacterial carpet under low shear [1] | RBC agglutination under static conditions (in words) [2] | Trimannose binding function of point mutants (in words) [3]
FimH-j96-Q32L:S124A: FimH-j96 with combined Q32L and S124A mutations in the loop regions near the linker chain (protein) FACKTANGTAIPIGGGSANVYVNLAPAVNVGLNLVVDLSTQIFCHNDYPETITDYVTLQRGSAYGGVLSSFSGTVKYNGSSYPFPTTSETPRVVYNSRTDKPWPVALYLTPVSSAGGVAIKAGALIAVLILRQTNNYNSDDFQFVWNIYANNDVVVPTGGCDVSARDVTVTLPDYPGSVPIPLTVYCAKSQNLGYYLSGTTADAGNSIFTNTASFSPAQGVGVQLTRNGTIIPANNTVSLGAVGTSAVSLGLTANYARTGGQVTAGNVQSIIGVTFVYQ | moved much more under low shear stress than those on FimH-j96 | – | –
FimH-f18-V156P: FimH-f18 with the V156P point mutation in the linker chain (protein) FACKTANGTAIPIGGGSANVYVNLAPAVNVGQNLVVDLSTQIFCHNDYPETITDYVTLQRGSAYGGVLSSFSGTVKYNGSSYPFPTTSETPRVVYNSRTDKPWPVALYLTPVSSAGGVAIKAGSLIAVLILRQTNNYNSDDFQFVWNIYANNDVVPPTGGCDVSARDVTVTLPDYPGSVPIPLTVYCAKSQNLGYYLSGTTADAGNSIFTNTASFSPAQGVGVQLTRNGTIIPANNTVSLGAVGTSAVSLGLTANYARTGGQVTAGNVQSIIGVTFVYQ | dramatically stronger adhesion under low shear than did the FimH-f18 parent | significantly better than the corresponding wild-types | –
V154P: point mutation V154P engineered into the FimH-j96 and FimH-f18 variants (protein) FACKTANGTAIPIGGGSANVYVNLAPAVNVGQNLVVDLSTQIFCHNDYPETITDYVTLQRGSAYGGVLSSFSGTVKYNGSSYPFPTTSETPRVVYNSRTDKPWPVALYLTPVSSAGGVAIKAGSLIAVLILRQTNNYNSDDFQFVWNIYANNDPVVPTGGCDVSARDVTVTLPDYPGSVPIPLTVYCAKSQNLGYYLSGTTADAGNSIFTNTASFSPAQGVGVQLTRNGTIIPANNTVSLGAVGTSAVSLGLTANYARTGGQVTAGNVQSIIGVTFVYQ | – | – | entirely conserved
V156P: point mutation V156P engineered into the FimH-j96 and FimH-f18 variants (protein) FACKTANGTAIPIGGGSANVYVNLAPAVNVGQNLVVDLSTQIFCHNDYPETITDYVTLQRGSAYGGVLSSFSGTVKYNGSSYPFPTTSETPRVVYNSRTDKPWPVALYLTPVSSAGGVAIKAGSLIAVLILRQTNNYNSDDFQFVWNIYANNDVVPPTGGCDVSARDVTVTLPDYPGSVPIPLTVYCAKSQNLGYYLSGTTADAGNSIFTNTASFSPAQGVGVQLTRNGTIIPANNTVSLGAVGTSAVSLGLTANYARTGGQVTAGNVQSIIGVTFVYQ | – | – | entirely conserved
FimH-j96-V156P: FimH-j96 with the V156P point mutation in the linker chain (protein) FACKTANGTAIPIGGGSANVYVNLAPAVNVGQNLVVDLSTQIFCHNDYPETITDYVTLQRGSAYGGVLSSFSGTVKYNGSSYPFPTTSETPRVVYNSRTDKPWPVALYLTPVSSAGGVAIKAGSLIAVLILRQTNNYNSDDFQFVWNIYANNDVVPPTGGCDVSARDVTVTLPDYPGSVPIPLTVYCAKSQNLGYYLSGTTADAGNSIFTNTASFSPAQGVGVQLTRNGTIIPANNTVSLGAVGTSAVSLGLTANYARTGGQVTAGNVQSIIGVTFVYQ | – | significantly better than the corresponding wild-types | –
V155P: point mutation V155P engineered into the FimH-j96 and FimH-f18 variants (protein) FACKTANGTAIPIGGGSANVYVNLAPAVNVGQNLVVDLSTQIFCHNDYPETITDYVTLQRGSAYGGVLSSFSGTVKYNGSSYPFPTTSETPRVVYNSRTDKPWPVALYLTPVSSAGGVAIKAGSLIAVLILRQTNNYNSDDFQFVWNIYANNDVPVPTGGCDVSARDVTVTLPDYPGSVPIPLTVYCAKSQNLGYYLSGTTADAGNSIFTNTASFSPAQGVGVQLTRNGTIIPANNTVSLGAVGTSAVSLGLTANYARTGGQVTAGNVQSIIGVTFVYQ | – | – | entirely conserved
